Laboratory results taken from PMC12408736.

System: Rap1 (Naumovozyma castellii)
Test: competition EMSA
Conditions: labeled N1 probe, 10 mM Tris-HCl pH 7.5, 7 mM MgCl2, 8% glycerol, 10 fmol probe in 15 µl, ~0.6 µg Rap1 extract, 1.5 µg non-specific competitor (E. coli DNA, salmon sperm DNA …); for binding signal: 400x competitor, scale: fold shifted probe remaining vs telomeric competitor

Sequence | binding signal | binding signal (fold shifted probe remaining (reference)) (unlabeled N1 as competitor)
AAGATTTGTATAGTCTGGGTAATGTATGTCAT (double strand) [ST-3] | 91 | –
AAGGATAGTTGGTCTGGGTGAGGATATTCTGTT (double strand) [ST-1] | 60 | –
GTCTGGGTGTCTGGGTGTC (double strand) [telomeric ds-probe (19 bp)] | – | 1
GTGTCGTTAGGTACGGAGGGTGTTGTTTGGAATATG (double strand) [ST-4] | 33 | –
TGTTGTTGATGGTGGTGTTGTTTTTTTGTC (double strand) [ST-2] | 66 | –
